Measurements reported in patent publication US20200407424A1 (FRAUNHOFER GESELLSCHAFT ZUR F RDERUNG DER ANGEWANDTEN …, published 2020).
Square brackets hold non-standard residues; d marks the D form. Ends that are not written are not given here. Cit = NC(=O)NCCC[C@H](N)C(=O)O

The binders below were run against T1, recombinant MHC class II protein of the HLA DRB1 1001 genotype (human) (assay: in vitro binding assay).
T1 construct: construct not described

| Binder | binding result |
| --- | --- |
| VIGMDVAASEFFRSG [a-enolase peptide ref no 49] | no binding |
| QEFMILPVGAANFRE [a-enolase peptide ref no 34] | no binding |

The binders below were run against T2, recombinant MHC class II protein of the HLA DRB1 0408 genotype (human) (assay: in vitro binding assay).
T2 construct: construct not described

| Binder | binding result |
| --- | --- |
| VIGMDVAASEFFRSG [a-enolase peptide ref no 49] | binds |
| QEFMILPVGAANFRE [a-enolase peptide ref no 34] | no binding |

Each binder was assayed against T3, recombinant MHC class II protein of the HLA DRB1 0404 genotype (human) (assay: in vitro binding assay).
T3 construct: construct not described

| Binder | binding result |
| --- | --- |
| VIGMDVAASEFFRSG [a-enolase peptide ref no 49] | binds |
| QEFMILPVGAANFRE [a-enolase peptide ref no 34] | binds |

The binders below were run against T4, recombinant MHC class II protein of the HLA DRB1 0101 genotype (human) (assay: in vitro binding assay).
T4 construct: construct not described

| Binder | binding result |
| --- | --- |
| VIGMDVAASEFFRSG [a-enolase peptide ref no 49] | no binding |
| QEFMILPVGAANFRE [a-enolase peptide ref no 34] | binds |

What follows are binders tested against T5, recombinant MHC class II protein of the HLA DRB1 0405 genotype (human) (assay: in vitro binding assay).
T5 construct: construct not described

| Binder | binding result |
| --- | --- |
| VIGMDVAASEFFRSG [a-enolase peptide ref no 49] | binds |
| QEFMILPVGAANFRE [a-enolase peptide ref no 34] | binds |

Molecular target: T3, recombinant MHC class II protein of the …
Test: in vitro binding assay
Remark: another data set of the same source

| Binder | binding result |
| --- | --- |
| SAVRLRSSVPGVRLL [vimentin peptide ref no 14] | binds |
| LLAELEQLKGQGKSR [vimentin peptide ref no 27] | no binding |
| ELRRQVDQLTNDKAR [vimentin peptide ref no 32] | binds |
| FRQDVDNASLARLDL [vimentin peptide ref no 42] | no binding |
| ARLDLERKVESLQEE [vimentin peptide ref no 44] | binds |
| GQVINETSQHHDDLE [vimentin peptide ref no 92] | binds |
| XKLLEGEESXISLPL (citrulline (Xaa) at 1, 10) [citrullinated vimentin peptide ref no 159] | no binding |
| MALDIEIATYRKLLE [vimentin peptide ref no 79] | binds |

Each binder was assayed against T6, recombinant MHC class II protein of the HLA DRB1 0401 genotype (human) (assay: in vitro binding assay).
T6 construct: construct not described; also called HLA-DR0401

| Binder | binding result |
| --- | --- |
| DVRQQYESVAAKNLQ [vimentin peptide ref no 55] | binds |
| FKNTRTNEKVELQEL [vimentin peptide ref no 20] | binds |
| Y[Cit][Cit]MFGGPGTAS[Cit]PS [citrullinated vimentin peptide ref no 95] | binds |
| GVRLLQDSVDFSLAD [vimentin peptide ref no 16] | binds |
| FAVEAANYQDTIG[Cit]L [citrullinated vimentin peptide ref no 150] | binds |
| STEY[Cit][Cit]QVQSLTCEV [citrullinated vimentin peptide ref no 145] | binds |
| FRQDVDNASLARLDL [vimentin peptide ref no 42] | binds |
| VTTST[Cit]TYSLGSAL[Cit] [citrullinated vimentin peptide ref no 99] | binds |
| FAVEAANYQDTIGRL [vimentin peptide ref no 71] | binds |
| XKLLEGEESXISLPL (citrulline (Xaa) at 1, 10) [citrullinated vimentin peptide ref no 159] | binds |
| YATRSSAVRLRSSVP [vimentin peptide ref no 13] | no binding |
| MALDIEIATYRKLLE [vimentin peptide ref no 79] | no binding |
| YKSKFADLSEAANRN [vimentin peptide ref no 59] | binds |

Molecular target: T4, recombinant MHC class II protein of the …
Test: in vitro binding assay
Remark: another data set of the same source

| Binder | binding result |
| --- | --- |
| DVRQQYESVAAKNLQ [vimentin peptide ref no 55] | binds |
| F[Cit]QDVDNASLA[Cit]LDL [citrullinated vimentin peptide ref no 132] | binds |
| Y[Cit][Cit]MFGGPGTAS[Cit]PS [citrullinated vimentin peptide ref no 95] | binds |
| GVRLLQDSVDFSLAD [vimentin peptide ref no 16] | no binding |
| LLAELEQLKGQGKSR [vimentin peptide ref no 27] | binds |
| ELRRQVDQLTNDKAR [vimentin peptide ref no 32] | binds |
| XEYQDLLNVKMALDI (citrulline (Xaa) at 1) [citrullinated vimentin peptide ref no 156] | binds |
| FRQDVDNASLARLDL [vimentin peptide ref no 42] | binds |
| VTTST[Cit]TYSLGSAL[Cit] [citrullinated vimentin peptide ref no 99] | binds |
| YATRSSAVRLRSSVP [vimentin peptide ref no 13] | binds |
| MALDIEIATYRKLLE [vimentin peptide ref no 79] | binds |
